# B1: VHH peptide monomer 5D (VHH)
# VHH: QVQLVESGGGLVQPGGSLRLSCEASGFTLDYYGIGWFRQPPGKEREAVSYISASARTILYADSVKGRFTISRDNAKNAVYLQMNSLKREDTAVYYCARRRFSASSVNRWLADDYDVWGRGTQVAVSS
# B2: ABAB binding agent (AH3/5D/AA6/E3, tetra-specific tetrameric VHH) (designed binder)
# chain: QVQLVETGGGLVQPGGSLRLSCAASGFTLDYSSIGWFRQAPGKEREGVSCISSSGDSTKYADSVKGRFTTSRDNAKNTVYLQMNSLKPDDTAVYYCAAFRATMCGVFPLSPYGKDDWGKGTLVTVSSGGGGSGGGGSGGGGSQVQLVESGGGLVQPGGSLRLSCEASGFTLDYYGIGWFRQPPGKEREAVSYISASARTILYADSVKGRFTISRDNAKNAVYLQMNSLKREDTAVYYCARRRFSASSVNRWLADDYDVWGRGTQVAVSSGGGSGGGSGGGSGGGSQLQLVETGGGLVQPGGSLRLSCAASGFTFSDYVMTWVRQAPGKGPEWIATINTDGSTMRDDSTKGRFTISRDNAKNTLYLQMTSLKPEDTALYYCARGRVISASAIRGAVRGPGTQVTVSSGGGGSGGGGSGGGGSQVQLVESGGGLVQTGGSLRLSCASSGSIAGFETVTWSRQAPGKSLQWVASMTKTNNEIYSDSVKGRFIISRDNAKNTVYLQMNSLKPEDTGVYFCKGPELRGQGIQVTVSS
# notes: also called r-ABAB; recombinant ABAB
# B3: VHH peptide monomer AH3 (VHH)
# VHH: QVQLVETGGLVQPGGSLRLSCAASGFTLDYSSIGWFRQAPGKEREGVSCISSSGDSTKYADSVKGRFTTSRDNAKNTVYLQMNSLKPDDTAVYYCAAFRATMCGVFPLSPYGKDDWGKGTLVTVSS
# notes: also called VHH AH3
# B4: VHH peptide monomer E3 (VHH)
# VHH: QVQLVESGGGLVQTGGSLRLSCASSGSIAGFETVTWSRQAPGKSLQWVASMTKTNNEIYSDSVKGRFIISRDNAKNTVYLQMNSLKPEDTGVYFCKGPELRGQGIQVTVSS
# notes: also called VHH E3
# Experiments:
# [1] = target: T1, Clostridium difficile toxin B (TcdB) (Clostridium difficile, UniProt P18177 2-2366); experiment: binding kinetics, method not stated
# T1 construct: also called TxB
# T1 sequence (P18177 2-2366 limits assumed): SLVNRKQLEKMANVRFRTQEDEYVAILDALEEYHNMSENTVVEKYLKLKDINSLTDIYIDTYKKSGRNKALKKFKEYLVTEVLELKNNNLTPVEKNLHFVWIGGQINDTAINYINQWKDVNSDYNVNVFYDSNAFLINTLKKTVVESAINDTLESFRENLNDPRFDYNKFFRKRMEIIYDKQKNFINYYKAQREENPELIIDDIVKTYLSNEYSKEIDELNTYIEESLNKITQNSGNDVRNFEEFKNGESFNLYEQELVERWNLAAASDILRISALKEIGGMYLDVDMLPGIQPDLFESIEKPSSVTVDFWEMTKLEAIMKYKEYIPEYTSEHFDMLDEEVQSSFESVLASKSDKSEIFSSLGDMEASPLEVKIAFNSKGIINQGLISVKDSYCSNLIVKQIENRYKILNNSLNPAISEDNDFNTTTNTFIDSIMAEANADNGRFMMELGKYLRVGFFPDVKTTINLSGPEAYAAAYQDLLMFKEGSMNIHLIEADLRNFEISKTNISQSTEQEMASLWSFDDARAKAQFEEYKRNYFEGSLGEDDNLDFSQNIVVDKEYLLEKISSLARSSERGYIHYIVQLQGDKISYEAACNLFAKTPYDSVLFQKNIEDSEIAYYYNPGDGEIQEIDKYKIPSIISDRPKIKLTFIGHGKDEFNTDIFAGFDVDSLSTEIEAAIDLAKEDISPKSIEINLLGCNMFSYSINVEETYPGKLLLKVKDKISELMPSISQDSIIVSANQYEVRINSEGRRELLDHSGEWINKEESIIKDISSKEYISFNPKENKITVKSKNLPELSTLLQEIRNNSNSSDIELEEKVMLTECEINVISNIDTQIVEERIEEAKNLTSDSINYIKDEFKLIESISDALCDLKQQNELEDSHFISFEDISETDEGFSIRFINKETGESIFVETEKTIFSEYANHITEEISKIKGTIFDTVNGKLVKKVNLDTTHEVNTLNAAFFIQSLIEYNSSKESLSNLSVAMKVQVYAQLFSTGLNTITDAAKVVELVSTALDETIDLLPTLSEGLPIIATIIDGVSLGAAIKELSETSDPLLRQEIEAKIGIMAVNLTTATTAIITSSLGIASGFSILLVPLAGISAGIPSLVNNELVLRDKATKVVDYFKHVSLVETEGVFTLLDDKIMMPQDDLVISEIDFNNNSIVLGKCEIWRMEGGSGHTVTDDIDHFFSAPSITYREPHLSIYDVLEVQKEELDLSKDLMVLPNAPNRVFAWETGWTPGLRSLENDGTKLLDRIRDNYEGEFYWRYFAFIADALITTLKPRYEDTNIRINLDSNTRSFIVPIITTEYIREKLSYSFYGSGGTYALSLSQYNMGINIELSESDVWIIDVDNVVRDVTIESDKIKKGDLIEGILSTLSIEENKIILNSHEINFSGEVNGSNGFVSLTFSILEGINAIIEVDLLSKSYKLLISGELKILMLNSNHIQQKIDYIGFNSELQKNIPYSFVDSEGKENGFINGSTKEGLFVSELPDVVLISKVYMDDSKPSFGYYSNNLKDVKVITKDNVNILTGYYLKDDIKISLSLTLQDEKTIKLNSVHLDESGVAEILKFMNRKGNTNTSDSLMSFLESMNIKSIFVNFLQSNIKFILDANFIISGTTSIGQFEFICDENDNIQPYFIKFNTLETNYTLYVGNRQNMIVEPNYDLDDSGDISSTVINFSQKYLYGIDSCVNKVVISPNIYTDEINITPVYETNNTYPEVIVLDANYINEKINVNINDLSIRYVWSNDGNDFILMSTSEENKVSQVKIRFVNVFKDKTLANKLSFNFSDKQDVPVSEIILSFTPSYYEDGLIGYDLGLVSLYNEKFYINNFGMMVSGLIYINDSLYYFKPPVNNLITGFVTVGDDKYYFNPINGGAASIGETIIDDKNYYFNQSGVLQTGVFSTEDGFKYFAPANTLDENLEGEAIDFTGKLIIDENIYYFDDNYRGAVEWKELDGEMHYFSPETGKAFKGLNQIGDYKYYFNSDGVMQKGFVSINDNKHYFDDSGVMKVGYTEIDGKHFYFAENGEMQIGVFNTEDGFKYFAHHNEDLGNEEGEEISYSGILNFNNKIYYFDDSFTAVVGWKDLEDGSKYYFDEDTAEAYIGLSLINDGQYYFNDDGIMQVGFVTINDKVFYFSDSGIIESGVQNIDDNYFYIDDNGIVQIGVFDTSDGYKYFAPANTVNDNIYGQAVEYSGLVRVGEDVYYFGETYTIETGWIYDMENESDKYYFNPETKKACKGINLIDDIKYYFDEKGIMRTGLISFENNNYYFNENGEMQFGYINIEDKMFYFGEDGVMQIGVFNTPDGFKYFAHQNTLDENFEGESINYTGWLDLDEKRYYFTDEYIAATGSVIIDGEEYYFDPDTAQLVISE
# [2] = target: T2, Clostridium difficile toxin A (TcdA) (Clostridium difficile, UniProt P16154 1-2710); experiment: binding kinetics, method not stated
# T2 construct: also called TxA; rTcdA
# T2 sequence (P16154 whole entry): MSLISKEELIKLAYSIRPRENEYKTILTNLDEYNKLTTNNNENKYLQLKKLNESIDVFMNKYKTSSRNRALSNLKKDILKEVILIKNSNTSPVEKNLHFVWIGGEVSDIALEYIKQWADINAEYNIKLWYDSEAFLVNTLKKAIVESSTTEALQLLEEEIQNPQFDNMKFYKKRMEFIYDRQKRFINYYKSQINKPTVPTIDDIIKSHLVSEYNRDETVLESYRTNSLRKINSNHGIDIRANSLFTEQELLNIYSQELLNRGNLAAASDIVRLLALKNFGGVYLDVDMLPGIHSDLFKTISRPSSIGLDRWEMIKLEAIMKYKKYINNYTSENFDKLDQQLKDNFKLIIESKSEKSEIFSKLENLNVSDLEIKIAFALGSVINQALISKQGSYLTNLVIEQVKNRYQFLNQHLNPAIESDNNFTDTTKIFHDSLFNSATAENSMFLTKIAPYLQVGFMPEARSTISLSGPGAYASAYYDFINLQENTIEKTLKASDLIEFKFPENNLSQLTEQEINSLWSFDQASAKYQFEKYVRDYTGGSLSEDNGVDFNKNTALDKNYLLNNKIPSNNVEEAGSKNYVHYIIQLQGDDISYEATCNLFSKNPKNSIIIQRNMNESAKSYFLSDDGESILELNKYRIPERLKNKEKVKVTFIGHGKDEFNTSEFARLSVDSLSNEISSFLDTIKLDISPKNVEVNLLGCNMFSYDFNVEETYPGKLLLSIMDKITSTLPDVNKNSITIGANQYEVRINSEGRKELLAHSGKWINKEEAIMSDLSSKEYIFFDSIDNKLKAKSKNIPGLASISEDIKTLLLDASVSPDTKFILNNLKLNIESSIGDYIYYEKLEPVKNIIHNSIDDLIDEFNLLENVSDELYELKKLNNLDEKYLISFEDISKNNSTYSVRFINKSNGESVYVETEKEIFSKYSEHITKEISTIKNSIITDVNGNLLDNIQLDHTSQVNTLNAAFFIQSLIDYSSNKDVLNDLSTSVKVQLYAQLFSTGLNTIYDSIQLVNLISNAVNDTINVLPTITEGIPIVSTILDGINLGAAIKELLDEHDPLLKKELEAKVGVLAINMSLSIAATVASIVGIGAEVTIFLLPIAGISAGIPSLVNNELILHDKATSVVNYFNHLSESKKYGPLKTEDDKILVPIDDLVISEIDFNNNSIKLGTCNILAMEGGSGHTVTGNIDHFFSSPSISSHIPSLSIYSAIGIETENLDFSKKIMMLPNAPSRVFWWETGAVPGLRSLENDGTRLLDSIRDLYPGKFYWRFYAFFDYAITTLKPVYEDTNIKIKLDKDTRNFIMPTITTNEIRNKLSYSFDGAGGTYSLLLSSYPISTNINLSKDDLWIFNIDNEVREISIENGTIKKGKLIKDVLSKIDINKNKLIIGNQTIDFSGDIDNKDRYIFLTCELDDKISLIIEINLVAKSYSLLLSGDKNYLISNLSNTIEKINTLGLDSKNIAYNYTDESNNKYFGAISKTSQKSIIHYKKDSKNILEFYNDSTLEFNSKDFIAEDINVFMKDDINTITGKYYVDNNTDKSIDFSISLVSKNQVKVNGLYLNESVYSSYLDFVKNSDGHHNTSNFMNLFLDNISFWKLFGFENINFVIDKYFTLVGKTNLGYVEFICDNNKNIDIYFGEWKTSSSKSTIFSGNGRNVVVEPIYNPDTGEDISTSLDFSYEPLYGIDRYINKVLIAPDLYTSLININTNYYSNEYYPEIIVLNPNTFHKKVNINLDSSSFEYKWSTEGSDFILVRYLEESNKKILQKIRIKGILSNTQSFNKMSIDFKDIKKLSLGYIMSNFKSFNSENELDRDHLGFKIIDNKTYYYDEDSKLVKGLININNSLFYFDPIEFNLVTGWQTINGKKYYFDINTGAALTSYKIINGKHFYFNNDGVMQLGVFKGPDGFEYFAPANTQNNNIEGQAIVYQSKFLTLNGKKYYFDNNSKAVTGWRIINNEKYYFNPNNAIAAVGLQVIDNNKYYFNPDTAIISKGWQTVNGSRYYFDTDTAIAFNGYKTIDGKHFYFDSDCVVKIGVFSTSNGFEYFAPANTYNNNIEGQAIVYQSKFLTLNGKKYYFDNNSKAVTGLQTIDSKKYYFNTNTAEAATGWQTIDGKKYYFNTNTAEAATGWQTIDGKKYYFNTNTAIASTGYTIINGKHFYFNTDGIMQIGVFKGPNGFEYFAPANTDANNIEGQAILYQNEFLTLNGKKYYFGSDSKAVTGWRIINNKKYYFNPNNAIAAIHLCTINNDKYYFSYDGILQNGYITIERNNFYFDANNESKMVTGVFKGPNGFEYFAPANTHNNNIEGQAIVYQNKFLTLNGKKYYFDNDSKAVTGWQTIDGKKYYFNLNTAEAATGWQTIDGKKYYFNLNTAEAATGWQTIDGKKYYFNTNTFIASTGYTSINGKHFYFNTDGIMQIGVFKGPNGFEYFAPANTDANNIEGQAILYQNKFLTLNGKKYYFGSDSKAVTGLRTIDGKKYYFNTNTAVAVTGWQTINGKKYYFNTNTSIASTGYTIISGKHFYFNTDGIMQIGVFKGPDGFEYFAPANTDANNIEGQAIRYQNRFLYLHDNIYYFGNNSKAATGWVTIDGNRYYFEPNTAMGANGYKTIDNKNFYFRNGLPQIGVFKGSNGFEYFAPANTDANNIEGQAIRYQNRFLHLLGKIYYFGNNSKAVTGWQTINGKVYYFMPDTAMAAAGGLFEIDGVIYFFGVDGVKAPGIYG
# [3] = target: T1, Clostridium difficile toxin B (TcdB); experiment: ELISA on plates coated with 1 ug/ml TcdB (TxB), OD450
Binder,Kd [1],koff [1],kon [1],Kd [2],koff [2],kon [2],EC50 (read off the curve) [3]
B1,0.65 nM,0.000994 s⁻¹,1.52e+06 M⁻¹ s⁻¹,–,–,–,–
B2,0.002 nM,3.57e-06 s⁻¹,1.79e+06 M⁻¹ s⁻¹,–,–,–,–
B3,–,–,–,32 nM,0.00071 s⁻¹,22000 M⁻¹ s⁻¹,–
B4,0.03 nM,9.4e-05 s⁻¹,2.95e+06 M⁻¹ s⁻¹,–,–,–,~0.02 µg/mL

# Reference: patent US20180319872A1 (UNIVERSITY OF MARYLAND BALTIMORE, published 2018)
